The target in experiment [1] is T1, human LIF protein (human, UniProt P15018 23-202).
T1 construct: Bought recombinant protein (Sino Biological / Yiqiao Shenzhou 14890-HNAH) in most assays; also called recombinant human LIF protein; rhLIF
The experiment in a line: ELISA, antigen coated 0.5 ug/ml, 293S supernatant non-heated, antibody 1 ug/mL. As to the method: (§1) Each well was coated with 100 μL of 0.5 μg/ml antigen and incubate overnight at 4° C., and the plates were washed three times with 300 μL of Wash Buffer. The plates were closed with 200 μL of Closure Buffer (2% bovine serum albumin) for 60 min at room temperature. The plates were washed three times with 300 μL of Wash Buffer. 100 μL of diluted anti-LIF antibody at different concentrations was added to each well and incubate for 1 hour at room temperature. The plates were washed 4 times with 300 μL of Wash Buffer. 100 μL of HRP-labeled goat anti-human Fc secondary antibody at a dilution of 1:5000 was added and incubate for 1 hour at room temperature. The plates were washed 6 times with 300 μL of Wash Buffer. 100 μL of H₂O₂-Amplx Color Development Solution was added for developing the color for 10 min at room temperature under dark conditions. The OD 450 value was read by an enzyme marker. Heat treatment: the expression medium was heated on the PCR machine at 70° C. for 5 min and then rapidly cooled to room temperature. Perform subsequent ELISA assays as above.

Experiment [2] concerns the target T1, human LIF protein. The experiment in a line: ELISA, antigen coated 0.5 ug/ml, 293S supernatant non-heated, antibody 0.2 ug/mL. As to the method: as §1
Experiment [3] addresses T1, human LIF protein. The experiment in a line: ELISA, antigen coated 0.5 ug/ml, 293S supernatant non-heated, antibody 0.04 ug/mL. On the procedure: as §1
The target in experiment [4] is T1, human LIF protein. The experiment in a line: ELISA, antigen coated 0.5 ug/ml, 293S supernatant heated 70 C 5 min, antibody 1 ug/mL. As to the method:
as §1

Experiment [5] addresses T1, human LIF protein. The experiment in a line: ELISA, antigen coated 0.5 ug/ml, 293S supernatant heated 70 C 5 min, antibody 0.2 ug/mL. As to the method: as §1
Experiment [6] has as its target T1, human LIF protein. The experiment in a line: ELISA, antigen coated 0.5 ug/ml, 293S supernatant heated 70 C 5 min, antibody 0.04 ug/mL. On the procedure: as §1
Experiment [7] has as its target T1, human LIF protein. The experiment in a line: BLI (Gator), antibody on anti-human Fc biosensor, human LIF in solution. As to the method: The affinity of anti-LIF antibody to human LIF protein was determined using Gator. The anti-human LIF antibody was first diluted to 5 ug/mL with PBS and then added to A-F wells in second column of the 96-well plate (200 μL per well). […] PBS was added to A-F wells in the first and third columns (200 μL per well). The 96-well plates were placed into the instrument and detected with anti-human Fc biosensor.

For experiment [8], the target named is T1, human LIF protein. Kind of experiment: ELISA (non-heated), purified IgG on antigen coated at 0.5 µg/mL, 3-fold dilutions.
Experiment [9] concerns the target T1, human LIF protein. The experiment in a line: ELISA (heated), antibody kept at 70 °C for 5 min before the ELISA, antigen coated at 0.5 µg/mL.

Positions count from the first letter of the chain named.

T1 sequence (P15018 23-202 limits assumed): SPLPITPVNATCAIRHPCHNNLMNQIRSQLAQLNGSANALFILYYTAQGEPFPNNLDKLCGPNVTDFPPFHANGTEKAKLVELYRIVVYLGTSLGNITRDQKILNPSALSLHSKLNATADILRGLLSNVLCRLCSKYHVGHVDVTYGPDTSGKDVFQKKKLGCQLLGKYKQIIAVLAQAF

B1: H2L2 (antibody, human IgG1, kappa)
heavy: not shown
light: DIHMTQSPSSLSASVGDRVTITCRASENIYSYLAWYQQKPGKSPKLLVYNAKTLAEGVPSRFSGSGSGTDFTLTISSLQPEDFATYYCQHHYVTPLTFGQGTKLEIKRTVAAPSVFIFPPSDEQLKSGTASVVCLLNNFYPREAKVQWKVDNALQSGNSQESVTEQDSKDSTYSLSSTLTLSKADYEKHKVYACEVTHQGLSSPVTKSFNRGEC
notes: Humanized, human IgG1 / kappa
As to B1, the ELISA signal is 11700 with human LIF protein [1]; 10300 with human LIF protein [2]; 6520 with human LIF protein [3]; 9780 with human LIF protein [4]; 8720 with human LIF protein [5]; 5260 with human LIF protein [6].

B2: H3L1 (antibody, human IgG1, kappa, N297A)
heavy: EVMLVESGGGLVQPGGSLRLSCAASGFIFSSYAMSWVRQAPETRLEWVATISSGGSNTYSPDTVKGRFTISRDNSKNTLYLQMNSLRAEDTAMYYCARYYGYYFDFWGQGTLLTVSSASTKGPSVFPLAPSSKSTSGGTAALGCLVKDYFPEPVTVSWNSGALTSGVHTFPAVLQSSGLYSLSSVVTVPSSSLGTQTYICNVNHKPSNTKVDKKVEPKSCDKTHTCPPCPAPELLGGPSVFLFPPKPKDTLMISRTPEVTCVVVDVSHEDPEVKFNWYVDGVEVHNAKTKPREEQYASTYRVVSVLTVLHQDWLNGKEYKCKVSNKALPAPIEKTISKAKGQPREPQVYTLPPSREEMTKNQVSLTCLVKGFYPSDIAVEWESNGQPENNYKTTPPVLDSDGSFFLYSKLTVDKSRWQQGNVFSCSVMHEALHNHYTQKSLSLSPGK
light: B1 light with H3Q
notes: Humanized, human IgG1 / kappa
As for B2, the ELISA signal amounted to 11400 with human LIF protein [1]; 10000 with human LIF protein [2]; 6220 in the experiment with human LIF protein [3]; 9130 with human LIF protein [4]; 7900 in the experiment with human LIF protein [5]; 5190 with human LIF protein [6].

B3: H2L1 (antibody, human IgG1, kappa)
heavy: not shown
light: B1 light with H3Q
notes: Humanized, human IgG1 / kappa
On to B3, for which the ELISA signal was 12000 in the experiment with human LIF protein [1]; 10700 with human LIF protein [2]; 6370 in the experiment with human LIF protein [3]; 9650 with human LIF protein [4]; 8560 in the experiment with human LIF protein [5]; 5440 with human LIF protein [6].

B4: H1L2 (antibody, human IgG1, kappa, N297A)
heavy: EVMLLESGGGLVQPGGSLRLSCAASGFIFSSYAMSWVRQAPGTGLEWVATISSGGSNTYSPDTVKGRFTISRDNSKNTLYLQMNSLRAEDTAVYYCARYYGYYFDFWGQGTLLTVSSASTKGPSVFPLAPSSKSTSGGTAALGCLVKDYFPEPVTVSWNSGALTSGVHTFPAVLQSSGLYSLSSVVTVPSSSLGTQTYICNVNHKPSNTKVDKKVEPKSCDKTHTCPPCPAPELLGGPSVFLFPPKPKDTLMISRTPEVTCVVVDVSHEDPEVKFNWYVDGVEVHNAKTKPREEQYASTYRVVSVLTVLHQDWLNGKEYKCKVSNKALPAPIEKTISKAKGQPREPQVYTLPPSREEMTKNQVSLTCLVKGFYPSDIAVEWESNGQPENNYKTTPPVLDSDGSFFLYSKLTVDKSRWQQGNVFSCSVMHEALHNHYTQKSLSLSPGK
light: B1 light
notes: Humanized, human IgG1 / kappa
Turning to B4, the ELISA signal was found to be 12100 with human LIF protein [1]; 11200 with human LIF protein [2]; 6680 in the experiment with human LIF protein [3]; 9830 with human LIF protein [4]; 8920 with human LIF protein [5]; 5490 with human LIF protein [6].

B5: H3L3 (antibody, human IgG1, kappa, N297A, V domains shown)
VH: EVMLVESGGGLVQPGGSLRLSCAASGFIFSSYAMSWVRQAPETRLEWVATISSGGSNTYSPDTVKGRFTISRDNSKNTLYLQMNSLRAEDTAMYYCARYYGYYFDFWGQGTLLTVSS
VL: DIHMTQSPSSLSASVGDRVTITCRASENIYSYLAWYQQKPGKSPQLLVYNAKTLAEGVPSRFSGSGSGTQFTLTISSLQPEDFATYYCQHHYVTPLTFGQGTKLEIKR
notes: Humanized, human IgG1 / kappa
For the molecule B5, the ELISA signal with human LIF protein [1] was 11300; with human LIF protein [2], 11000; in the experiment with human LIF protein [3], 6760; with human LIF protein [4] it was 9540; in the experiment with human LIF protein [5] it was 8900; with human LIF protein [6] it was 5390.

B6: 38E HuH1L1 (antibody, human IgG1, kappa, N297A)
heavy: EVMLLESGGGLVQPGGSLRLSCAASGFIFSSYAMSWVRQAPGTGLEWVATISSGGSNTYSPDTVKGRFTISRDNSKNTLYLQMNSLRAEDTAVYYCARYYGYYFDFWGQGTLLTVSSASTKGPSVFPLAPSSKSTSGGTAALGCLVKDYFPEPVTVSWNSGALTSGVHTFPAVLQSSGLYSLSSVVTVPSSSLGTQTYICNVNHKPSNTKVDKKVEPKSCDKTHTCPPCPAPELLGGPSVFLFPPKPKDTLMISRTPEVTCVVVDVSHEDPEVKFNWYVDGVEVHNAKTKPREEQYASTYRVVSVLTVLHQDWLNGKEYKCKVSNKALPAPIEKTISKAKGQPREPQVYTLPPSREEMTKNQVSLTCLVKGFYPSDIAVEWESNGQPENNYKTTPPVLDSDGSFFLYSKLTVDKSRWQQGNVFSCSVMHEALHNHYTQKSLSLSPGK
light: B1 light with H3Q
notes: Humanized, human IgG1 / kappa
In the experiment with human LIF protein [7], B6 displayed a Kd of 81.7 pM. The koff with human LIF protein [7] amounted to 4.65e-05 s⁻¹. In the experiment with human LIF protein [7], this molecule had a kon of 569000 M⁻¹ s⁻¹. Moreover, the ELISA signal is 11800 with human LIF protein [1]; 10600 in the experiment with human LIF protein [2]; 6850 in the experiment with human LIF protein [3]; 9800 with human LIF protein [4]; 9010 with human LIF protein [5]; 5970 with human LIF protein [6]. For the same molecule, the “EC50 (read off the curve)” value was around 0.07 µg/mL with human LIF protein [8] and around 0.1 µg/mL in the experiment with human LIF protein [9].

B7: H2L3 (antibody, human IgG1, kappa, V domains shown)
VH: B5 VH with E42G, R44G
VL: B5 VL
notes: Humanized, human IgG1 / kappa
As for B7, the ELISA signal with human LIF protein [1] was found to be 12000; in the experiment with human LIF protein [2] it was 11300; in the experiment with human LIF protein [3], 6270; in the experiment with human LIF protein [4], 9730; with human LIF protein [5], 9150; with human LIF protein [6], 4870.

B8: H1L3 (antibody, human IgG1, kappa, N297A, V domains shown)
VH: B5 VH with V5L, E42G, R44G, M93V
VL: B5 VL
notes: Humanized, human IgG1 / kappa
Regarding B8, the ELISA signal with human LIF protein [1] was found to be 11800; with human LIF protein [2] it was 10800; with human LIF protein [3] it was 6440; with human LIF protein [4] it was 9630; in the experiment with human LIF protein [5] it was 8750; with human LIF protein [6], 4980.

B9: 38E HuH2L4 (antibody, human IgG1, kappa, V domains shown)
VH: B5 VH with E42G, R44G
VL: B5 VL with P40Q, T74K, S76N
notes: Humanized, human IgG1 / kappa
B9: the ELISA signal amounted to 11800 with human LIF protein [1]; 10900 with human LIF protein [2]; 6880 with human LIF protein [3]; 10600 in the experiment with human LIF protein [4]; 9230 in the experiment with human LIF protein [5]; 5700 with human LIF protein [6]. Moreover, the “EC50 (read off the curve)” value with human LIF protein [8] was around 0.07 µg/mL; with human LIF protein [9] it was around 0.3 µg/mL.

B10: 38E HuH1L4 (antibody, human IgG1, kappa, N297A, V domains shown)
VH: B5 VH with V5L, E42G, R44G, M93V
VL: B5 VL with P40Q, T74K, S76N
notes: Humanized, human IgG1 / kappa
In the case of B10, the ELISA signal with human LIF protein [1] is 11900; with human LIF protein [2], 10900; with human LIF protein [3], 7320; in the experiment with human LIF protein [4], 10500; with human LIF protein [5] it was 9700; in the experiment with human LIF protein [6], 5670. Also, the “EC50 (read off the curve)” value with human LIF protein [8] is around 0.07 µg/mL; with human LIF protein [9], around 0.3 µg/mL.

B11: 38E10E1C11 chimeric antibody (antibody, human IgG1, kappa)
heavy: not shown
light: DIHMTQSPASLSASVGETVTITCRASENIYSYLAWYQQKQGKSPQLLVYNAKTLAEGVPSRFSGSGSGTQFSLKINSLQPEDFGSYYCQHHYVTPLTFGAGTKLELKRTVAAPSVFIFPPSDEQLKSGTASVVCLLNNFYPREAKVQWKVDNALQSGNSQESVTEQDSKDSTYSLSSTLTLSKADYEKHKVYACEVTHQGLSSPVTKSFNRGEC
notes: Mouse variable regions of 38E10E1C11 with human IgG1 / kappa constant regions; also called 38E Chimeric; 38E chimeric antibody
With B11, the Kd with human LIF protein [7] came to 23.3 pM. Moreover, in the experiment with human LIF protein [7], the koff was 1.57e-05 s⁻¹. In the experiment with human LIF protein [7], the kon came to 677000 M⁻¹ s⁻¹. Besides, the ELISA signal with human LIF protein [1] came to 11400; with human LIF protein [2] it was 10400; with human LIF protein [3], 6780; with human LIF protein [4], 10600; with human LIF protein [5], 8840; with human LIF protein [6] it was 4730. In the experiment with human LIF protein [8], the “EC50 (read off the curve)” value was around 0.07 µg/mL.
